Format in all cases: cell-based
Test [1] deals with normal human erythroid colony forming units (CFU-E). Nature of the test: Erythroid colony formation (CFU-E) in plasma clot culture (specificity assay). To be noted: concentrations of PF4 which consistently inhibited megakaryocyte colony formation; FIG. 4. The text has this: FIG. 4 graphically illustrates the effect of highly purified platelet factor 4 (PF4) on clonogenicity of normal human erythroid colony forming units (CFU-E) in plasma clot culture in the absence of accessory marrow immunocytes. Isolated bone marrow mononuclear cells (MNC) were depleted of adherent monocyte-macrophages and lymphocytes, as detailed in the Examples. After seven days in culture, plates were harvested and fixed and CFU-E detected by benzidine staining. Results of three separate experiments, each performed in quadruplicate culture plates, are shown. The effect of purified protein on inhibition of erythroid colony formation was tested.

For test [2], the system named is human megakaryocyte progenitor cells. Nature of the test: Megakaryocyte colony formation in co-culture with autologous T lymphocyte subsets. From the text:
(§1) Megakaryocyte colonies were cloned in plasma clot cultures as previously described (e.g., Blood 61: 384-9, 1983). The cell population cultured consisted of either unseparated high density marrow mononuclear cells (MNC), or MNC depleted of adherent monocytemacrophages (MO) and T lymphocytes using methods previously reported (e.g., J. Immunol. 2915-2925, 1987). To provide essential growth factors, all cultures were supplemented with normal human AB serum (30% v/v) derived from the platelet-poor plasma of a single donor.
Megakaryocyte colonies were enumerated by indirect immunofluorescence assay utilizing a rabbit anti-human platelet glycoprotein antiserum as a megakaryocyte probe (ibid.). […] A cluster of three or more intensely fluorescent cells was counted as one colony. Unless otherwise stated, all data are reported as the mean± S.D. of colonies enumerated.
Since the majority of marrow T lymphocytes are of the suppressor type, and PF4 is described in the prior art as inactivating these cells, the results obtained in Examples IA and IB were unexpected. In fact, it was anticipated that colony formation might be increased because of unopposed T helper activity. Putative progenitor cell-T cell-PF4 interactions were accordingly studied. Control target cells, depleted of adherent monocytes and T lymphocytes were cloned in plasma clots under standard conditions (Table 3). Aliquots of these target cells were also cloned in the presence of either CD4^+ helper, or CD8^+ suppressor T cells alone, or T effector cells plus PF4 at two different concentrations, 2.5 and 25 μg/ml.

Test [3] deals with normal human megakaryocyte progenitor cells. Nature of the test: Megakaryocyte colony formation in plasma clot culture, unseparated marrow MNC (proliferation assay). The note with it: control ~11 colonies. The protocol:
FIG. 1 graphically illustrates the effect of highly purified platelet factor 4 (PF4) on clonogenicity of normal human megakaryocyte progenitor cells in plasma clot culture. Bone marrow mononuclear cells (MNC) were isolated by density gradient sedimentation and then suspended in the appropriate culture medium, to which was added PF4 in the amounts indicated. The cell suspensions were plated, and cultured for twelve days at 37° C. in a humidified environment containing 5% CO2, and resulting megakaryocyte colonies were then enumerated in situ with an indirect immunofluorescence assay using a polyspecific antiplatelet glycoprotein antiserum as probe. Aggregate results (mean±S.D.) of five separate experiments are shown. Numbers at top of bars indicate p value in comparison to control (CONT.).
Megakaryocyte colonies were cloned in plasma clot cultures as previously described (e.g., Blood 61: 384-9, 1983). […]
Megakaryocyte colonies were enumerated by indirect immunofluorescence assay utilizing a rabbit anti-human platelet glycoprotein antiserum as a megakaryocyte probe (ibid.). […] A cluster of three or more intensely fluorescent cells was counted as one colony. […]
To determine if PF4 could modify megakaryocyte colony formation in vitro, a screen assay was performed by adding various amounts of pure protein to unseparated marrow MNC. […] In the presence of 2.5 μg/ml of PF4, ~7 colonies were counted. […]

The test system of test [4] is human megakaryocyte progenitor cells. Nature of the test: Megakaryocyte colony formation in plasma clot culture, MNC depleted of adherent monocyte-macrophages and T lymphocytes. To be noted: PF4 25 μg/ml; four experiments (FIG. 3).
From the text: FIG. 3 graphically illustrates the effect of highly purified platelet factor 4 (PF4) on normal human megakaryocyte colony formation in vitro in the absence of accessory marrow immunocytes. Isolated bone marrow mononuclear cells (MNC) were depleted of adherent monocyte-macrophages and lymphocytes and treated as detailed in the Examples. Each line represents the result of a single experiment performed in quadruplicate culture plates. p values in comparison to control are indicated for each experiment.
as §1
Megakaryocyte colonies were enumerated by indirect immunofluorescence assay utilizing a rabbit anti-human platelet glycoprotein antiserum as a megakaryocyte probe (ibid.). […] A cluster of three or more intensely fluorescent cells was counted as one colony. Unless otherwise stated, all data are reported as the mean± S.D. of colonies enumerated. […]

B1: platelet factor 4 (protein, UniProt P02776 32-101, looked up)
Platelet factor 4: EAEEDGDLQCLCVKTTSQVRPRHITSLEVIKAGPHCPTAQLIATLKNGRKICLDLQAPLYKKIIKKLLES
notes: Megakaryocyte/platelet-specific α-granule protein purified from outdated human platelets by heparin-agarose chromatography, >95% pure
As to B1, the “inhibition of erythroid colony formation units (CFU-E)” value in test [1] is listed as “no inhibition”. Also, the “dependence of colony suppressive effect on T lymphocytes” value in test [2] is “indifferent to the presence of T lymphocytes”. Also, in test [2] (PF4 2.5 μg/ml), the “effect on colony formation in presence of CD4+ (helper) cells” value is “unchanged”. Also, the “megakaryocyte colonies enumerated (mean ± SEM)” value in test [2] (Study 1, C/T4 2:1 + PF4 2.5 μg/ml, control 7 ± 2, C/T4 alone 11 ± 0) worked out at 8 ± 1 colonies; in test [2] (Study 1, C/T8 2:1 + PF4 2.5 μg/ml, control 7 ± 2, C/T8 alone 6 ± 1), 18 ± 2 colonies; in test [2] (Study 2, C/T4 2:1 + PF4 2.5 μg/ml, control 4 ± 1, C/T4 alone 3 ± 1), 5 ± 1 colonies; in test [2] (Study 3, C/T8 2:1 + PF4 2.5 μg/ml, control 11 ± 3), 7 ± 2 colonies; in test [2] (Study 3, C/T8 2:1 + PF4 25 μg/ml, control 11 ± 3, p < .05) it was 1 ± 0 colonies; in test [2] (Study 4, C/T4 2:1 + PF4 2.5 μg/ml, control 116 ± 6, C/T4 alone 141 ± 22) it was 122 ± 29 colonies. Besides, the “megakaryocyte colonies enumerated (mean ± SEM)” value in test [2] (Study 4, C/T4 2:1 + PF4 25 μg/ml, control 116 ± 6, C/T4 alone 141 ± 22, p < .05) was found to be 8 ± 1 colonies; in test [2] (Study 4, C/T8 2:1 + PF4 2.5 μg/ml, control 116 ± 6, C/T8 alone 163 ± 13, p < .05), 87 ± 15 colonies; in test [2] (Study 4, C/T8 2:1 + PF4 25 μg/ml, control 116 ± 6, C/T8 alone 163 ± 13, p < .05) it was 13 ± 2 colonies; in test [2] (Study 5, C/T4 2:1 + PF4 25 μg/ml, control 33 ± 6, C/T4 alone 39 ± 4, p < .05), 3 ± 1 colonies; in test [2] (Study 5, C/T8 2:1 + PF4 2.5 μg/ml, control 33 ± 6), 33 ± 4 colonies; in test [2] (Study 5, C/T8 2:1 + PF4 25 μg/ml, control 33 ± 6, p < .05), 3 ± 1 colonies. Also, in test [2] (high concentration of PF4), the “effect on colony formation in presence of T cells” value was “highly significant decrease in colony formation”. In addition, the megakaryocyte colonies enumerated was ~ 7 colonies per 2×105 MNC plated in test [3] (PF4 2.5 μg/ml, not significant (p>0.05), aggregate of five experiments) and “five” in test [3] (PF4 25 μg/ml, p<0.007, aggregate of five experiments). In addition, the “effect on megakaryocyte colony formation” value in test [4] was “greatly inhibited in each of the experiments”. Further, the “mean inhibition of megakaryocyte colony formation” value in test [4] is listed as ~ 78%.
